Experiment in all cases: SPR
(In general: SPR reads the build-up and loss of mass on a sensor chip optically.)

The target of assay [1] is complement factor H, allotypic variant Val62 (human) (UniProt P08603).
Assay [2] deals with complement factor H, allotypic variant Ile62 (human) (UniProt P08603).
The target is the same in assay [3]. The source holds these as a separate data set.

Where two headings read alike, the source gives them in different places.

The Kd is a measure of binding affinity in units of concentration. Read a low Kd as tighter binding. Turning to “C3b (from UniProt P01024 23-667; P01024 749-1663) (domain or fragment)”, the Kd in assay [1] is 1.33 µM; in assay [2] it was 1.03 µM; in assay [3], 1.04 µM.

The record behind these values is PMC3272369.
